One assay has as its target HLA-A*01:01. Nature of the assay: IEDB peptide-MHC binding, purified MHC/direct/fluorescence; filed as Kd, often an IC50 or EC50 that approximates it; ≥ and ≤ were set here for values at or beyond the usual limits of such assays.
For a further assay, the target named is HLA-A*03:01. The assay is described as above.
The target in the next assay is HLA-A*11:01. The description is as above.
The next assay deals with HLA-A*69:01. The assay is described as above.
The next assay deals with HLA-B*07:02. The description is as above.
The next assay deals with HLA-B*15:01. The assay is described as above.
The target of assay [1] is HLA-B*15:17. Described as above. The note with it: source organism: Vibrio cholerae.
Another assay concerns the target HLA-B*18:01. Described as above.
Another assay has as its target HLA-B*27:05. Described as above.
The next assay has as its target HLA-B*39:01. The assay is described as above.
For a further assay, the target named is HLA-B*40:01. Described as above.
A further assay addresses HLA-B*46:01. The description is as above.
The target in another assay is HLA-B*48:01. The assay is described as above.
The target of another assay is HLA-B*51:01. The assay is described as above.
The target of a further assay is HLA-B*57:01. The assay is described as above.
The target of another assay is HLA-B*58:01. Described as above.
For another assay, the target named is HLA-A*30:01. Put plainly: IEDB peptide-MHC binding, purified MHC/competitive/fluorescence; filed as Kd, often an IC50 or EC50 that approximates it; ≥ and ≤ were set here for values at or beyond the usual limits of such assays. The following applies: source organism: Vibrio cholerae O1 biovar El Tor str. N16961.
For assay [2], the target named is HLA-A*31:01. The assay is described as above. The note with it: source organism: Vibrio cholerae O1 biovar El Tor str. N16961.
In a further assay the target is HLA-B*08:01. The assay is described as above.
The target in assay [3] is HLA-B*15:09. The description is as above. The note with it: source organism: Vibrio cholerae O1 biovar El Tor str. N16961.
Another assay addresses HLA-A*02:01. Nature of the assay: IEDB peptide-MHC binding, purified MHC/direct/fluorescence; filed as Kd, often an IC50 or EC50 that approximates it; ≥ and ≤ were set here for values at or beyond the usual limits of such assays. The note with it: source organism: Influenza A virus (A/Wisconsin/4755/1994(H1N1)).
The target in another assay is HLA-A*26:01. The assay is described as above. The note with it: source organism: Influenza A virus(A/swine/Shandong/fNY/2003(H9N2)).
Assay [4] concerns the target HLA-A*31:01. The assay is described as above. The note with it: source organism: Influenza A virus (A/Wisconsin/4755/1994(H1N1)).
In assay [5] the target is HLA-B*15:09. The assay is described as above. The following applies: source organism: Influenza A virus(A/swine/Shandong/fNY/2003(H9N2)).
For a further assay, the target named is HLA-B*38:01. The description is as above. The note with it: source organism: Influenza A virus(A/swine/Shandong/fNY/2003(H9N2)).
In assay [6] the target is HLA-B*15:17. Put plainly: IEDB peptide-MHC binding, purified MHC/competitive/fluorescence; filed as Kd, often an IC50 or EC50 that approximates it; ≥ and ≤ were set here for values at or beyond the usual limits of such assays. The following applies: source organism: Influenza A virus H3N2.
Setting [7] is: source organism: Vibrio cholerae.
Where [8] appears, read: source organism: Vibrio cholerae V52.
[9] abbreviates: source organism: Influenza A virus (A/Wisconsin/4755/1994(H1N1)).

pKd: −log10 of the molar value. Some results are limits rather than exact numbers.

For orientation: pKd means −log10 of the Kd, conventionally taken in molar units. A high value points to a low Kd.

As for YLKKGRLSL, the pKd was no more than 4.70 with HLA-A*01:01 (setting [7]); no more than 4.70 with HLA-A*03:01 (setting [7]); no more than 4.70 with HLA-A*11:01 (setting [7]); no more than 4.70 with HLA-A*69:01 (setting [7]); 6.91 in the assay with HLA-B*07:02 (setting [7]); 7.28 with HLA-B*15:01 (setting [8]). Further, the pKd in the assay with HLA-B*15:17 [1] is no more than 4.70; with HLA-B*18:01 (setting [7]), no more than 4.70; with HLA-B*27:05 (setting [7]), no more than 4.70; with HLA-B*39:01 (setting [8]) it was no more than 4.70; with HLA-B*40:01 (setting [7]) it was no more than 4.70; with HLA-B*46:01 (setting [7]) it was 5.30. Further, the pKd with HLA-B*48:01 (setting [7]) was no more than 4.70; with HLA-B*51:01 (setting [7]), no more than 4.70; with HLA-B*57:01 (setting [7]), no more than 4.70; with HLA-B*58:01 (setting [7]), no more than 4.70; in the assay with HLA-A*30:01 it was 5.83; in the assay with HLA-A*31:01 [2], no more than 4.70. The pKd with HLA-B*08:01 (source organism: Vibrio cholerae O1 biovar El Tor str. N16961) is 7.27; in the assay with HLA-B*15:09 [3] it was no more than 4.70.
Regarding ITKEKKEEL, the pKd with HLA-A*01:01 (setting [9]), in the assay with HLA-A*02:01, with HLA-A*03:01 (setting [9]), with HLA-A*11:01 (setting [9]), with HLA-A*26:01 and in the assay with HLA-A*31:01 [4] was no more than 4.70 throughout. For the same sequence, the pKd in the assay with HLA-A*69:01 (setting [9]), in the assay with HLA-B*07:02 (setting [9]), with HLA-B*15:01 (setting [9]), with HLA-B*15:09 [5], in the assay with HLA-B*18:01 (setting [9]) and with HLA-B*27:05 (setting [9]) was no more than 4.70 in each case. For the same sequence, the pKd in the assay with HLA-B*38:01, with HLA-B*39:01 (source organism: Influenza A virus(A/swine/Shandong/fNY/2003(H9N2))), with HLA-B*40:01 (setting [9]), with HLA-B*46:01 (setting [9]), with HLA-B*48:01 (setting [9]) and with HLA-B*51:01 (setting [9]) was no more than 4.70 in each case. In addition, the pKd in the assay with HLA-B*57:01 (setting [9]) is no more than 4.70; with HLA-B*58:01 (setting [9]) it was no more than 4.70; with HLA-B*08:01 (source organism: Influenza A virus H3N2) it was 5.32; with HLA-B*15:17 [6], no more than 4.70.

The values are drawn from the Immune Epitope Database (IEDB).
